US20170275666A1, “Methods for Preparing Rebaudioside I and Uses” (The Coca-Cola Company, priority 2014, published 2017)

How the values were obtained:
Type in all cases: biochemical
[1] = Activity of in-vivo preparations of UGT91D2, transformation of Rubusoside to Stevioside; details: per mL of lysate, 30° C., pH 7.2
Method: Activity tests were performed at 5 mL scale with 1000 μL of lysate for the transformation of Rubusoside to Stevioside using 0.5 mM of substrate, 2.5 mM of UDP-Glucose and 3 mM MgCl2 in 50 mM Sodium Phosphate buffer at pH 7.2. Samples were taken and analyzed by HPLC.

[2] = Catalytic reaction with in-vivo produced UGT76G1, stevioside to rebaudioside A; details: 0.5 mM Stevioside, 2.5 mM UDP-glucose, thawed lysate, 30° C., HPLC (CAD)
Method: The total volume of the reaction was 5.0 mL with the following composition: 50 mM sodium phosphate buffer pH 7.2, 3 mM MgCl2, 2.5 mM UDP-glucose, 0.5 mM Stevioside and 500 μL of UGT76G1 thawed lysate. The reactions were run at 30° C. on an orbitary shaker at 135 rpm. For each sample, 460 μL of the reaction mixture was quenched with 40 μL of 2N H2SO4 and 420 μL of methanol/water (6/4). The samples were immediately centrifuged and kept at 10° C. before analysis by HPLC (CAD).

[3] = Directed evolution of UGT76G1, conversion of Rebaudioside D to Rebaudioside M (Round 2), normalized to Round1-Var94; details: round 2 clones; baseline clone Round1-Var94 defined as 100%; lysate, Rebaudioside D 0.5 mM, UDP-Glucose 2.5 mM, 30° C., pH 7.2, HPLC
Excerpt: A list of 53 mutations was established containing different identified positive mutations from the first round and new mutations obtained by DNA2.0 ProteinGPS™ strategy. This list of mutations was subsequently used to design 92 variant genes that contained each 3 different mutations. After codon-optimized for expression in E. coli the genes were synthesized, subcloned in the pET30a+ plasmid and used for transformation of E. coli BL21 (DE3) chemically competent cells. The obtained cells were grown in Petri-dishes on solid LB medium in the presence of Kanamycin. Suitable colonies were selected and allowed to grow in liquid LB medium in tubes. Glycerol was added to the suspension as cryoprotectant and 400 μL aliquots were stored at −20° C. and at −80° C.
These storage aliquots of E. coli BL21(DE3) containing the pET30a+_UGT76G1var plasmids were thawed and added to LBGKP medium (20 g/L Luria Broth Lennox; 50 mM PIPES buffer pH 7.00; 50 mM Phosphate buffer pH 7.00; 2.5 g/L glucose and 50 mg/L of Kanamycine). This culture was allowed to shake in a 96 microtiter plate at 30° C. for 8 h.
3.95 mL of production medium containing 60 g/L of Overnight Express™ Instant TB medium (Novagen®), 10 g/L of glycerol and 50 mg/L of Kanamycin was inoculated with 50 μL of above described culture. In a 48 deepwell plate the resulting culture was allowed to stir at 20° C. […]

[4] = Directed evolution of UGT76G1, conversion of Rebaudioside D to Rebaudioside M (round 1); details: 0.5 mM Rebaudioside D, 2.5 mM UDP-Glucose, 100 μL fresh lysate, 30° C., pH 7.2
How it was run: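 Conversion to Reb M and initial rate were measured by HPLC with CAD at 2, 4, 7 and 24 h, with reactions run at 30° C in 50 mM phosphate pH 7.2 containing 0.5 mM Reb D, 2.5 mM UDP-glucose and 3 mM MgCl2. Enzyme source: fresh lysates of E. coli BL21(DE3) expressing 3-5-mutation UGT76G1 variants.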

B1: UGT91D2: UDP-glucosyltransferase (Genbank ACE87855.1) produced in E. coli, tested as lysate (protein, UniProt B3VI56 1-473, looked up)
UDP-glycosyltransferase 91D2: MATSDSIVDDRKQLHVATFPWLAFGHILPYLQLSKLIAEKGHKVSFLSTTRNIQRLSSHISPLINVVQLTLPRVQELPEDAEATTDVHPEDIPYLKKASDGLQPEVTRFLEQHSPDWIIYDYTHYWLPSIAASLGISRAHFSVTTPWAIAYMGPSADAMINGSDGRTTVEDLTTPPKWFPFPTKVCWRKHDLARLVPYKAPGISDGYRMGLVLKGSDCLLSKCYHEFGTQWLPLLETLHQVPVVPVGLLPPEVPGDEKDETWVSIKKWLDGKQKGSVVYVALGSEVLVSQTEVVELALGLELSGLPFVWAYRKPKGPAKSDSVELPDGFVERTRDRGLVWTSWAPQLRILSHESVCGFLTHCGSGSIVEGLMFGHPLIMLPIFGDQPLNARLLEDKQVGIEIPRNEEDGCLTKESVARSLRSVVVEKEGEIYKANARELSKIYNDTKVEKEYVSQFVDYLEKNTRAVAIDHES
modifications: E. coli lysate
notes: UDP-glucosyltransferase (Genbank ACE87855.1) produced in E. coli, tested as lysate
Transformation activity Rubusoside to Stevioside ([1]; plasmid pET30a+, expression strain ArcticExpress (DE3)): 21 mU mL^−1 | Transformation activity Rubusoside to Stevioside ([1]; plasmid pET30a+, expression strain Tuner (DE3)): 28 mU mL^−1 | Transformation activity Rubusoside to Stevioside ([1]; plasmid pMAL, expression strain ArcticExpress): 60 mU mL^−1 | Transformation activity Rubusoside to Stevioside ([1]; plasmid pMAL, expression strain BL21): 9 mU mL^−1

B2: UGT76G1: UDP-glycosyltransferase from Stevia rebaudiana (Genbank AAR06912.1), in-vivo produced lysate (protein, UniProt Q6VAB4 1-458, looked up)
UDP-glycosyltransferase 76G1: MENKTETTVRRRRRIILFPVPFQGHINPILQLANVLYSKGFSITIFHTNFNKPKTSNYPHFTFRFILDNDPQDERISNLPTHGPLAGMRIPIINEHGADELRRELELLMLASEEDEEVSCLITDALWYFAQSVADSLNLRRLVLMTSSLFNFHAHVSLPQFDELGYLDPDDKTRLEEQASGFPMLKVKDIKSAYSNWQILKEILGKMIKQTKASSGVIWNSFKELEESELETVIREIPAPSFLIPLPKHLTASSSSLLDHDRTVFQWLDQQPPSSVLYVSFGSTSEVDEKDFLEIARGLVDSKQSFLWVVRPGFVKGSTWVEPLPDGFLGERGRIVKWVPQQEVLAHGAIGAFWTHSGWNSTLESVCEGVPMIFSDFGLDQPLNARYMSDVLKVGVYLENGWERGEIANAIRRVMVDEEGEYIRQNARVLKQKADVSLMKGGSSYESLESLVSYISSL
modifications: cell lysate
notes: UDP-glycosyltransferase from Stevia rebaudiana (Genbank AAR06912.1), in-vivo produced lysate
conversion of stevioside to rebaudioside A [2]: almost complete conversion

B3: UGT76G1var94: UGT76G1 variant, mutations Q266E_P272A_R334K_G348P_L379G; most active round 1 clone (protein, UniProt Q6VAB4 1-458, looked up, variant Q266E P272A R334K G348P L379G)
UDP-glycosyltransferase 76G1: MENKTETTVRRRRRIILFPVPFQGHINPILQLANVLYSKGFSITIFHTNFNKPKTSNYPHFTFRFILDNDPQDERISNLPTHGPLAGMRIPIINEHGADELRRELELLMLASEEDEEVSCLITDALWYFAQSVADSLNLRRLVLMTSSLFNFHAHVSLPQFDELGYLDPDDKTRLEEQASGFPMLKVKDIKSAYSNWQILKEILGKMIKQTKASSGVIWNSFKELEESELETVIREIPAPSFLIPLPKHLTASSSSLLDHDRTVFEWLDQQAPSSVLYVSFGSTSEVDEKDFLEIARGLVDSKQSFLWVVRPGFVKGSTWVEPLPDGFLGERGKIVKWVPQQEVLAHPAIGAFWTHSGWNSTLESVCEGVPMIFSDFGGDQPLNARYMSDVLKVGVYLENGWERGEIANAIRRVMVDEEGEYIRQNARVLKQKADVSLMKGGSSYESLESLVSYISSL
Normalized conversion Reb D to Reb M after 22 h. [3]: 100% | Normalized initial rate (0-4 h) [3]: 100% | Conversion Reb D to Reb M after 24 h (%) [4]: 72.0% | initial rate (Reb M area/min) [4]: 7.9E+07 Reb M area/min
